Reference: paper PMC11321319, “Shy is a proteobacterial steroid hydratase which catalyzes steroid side chain degradation without requiring a catalytically inert partner domain” (The Journal of Biological Chemistry, 2024)
Blank lines part the entries; values can stand above or below the molecule they belong to.

Experiments:
[1] = system: T1, C/C=C/C(=O)SCCNC(=O)CCNC(=O)[C@H](O)C(C)(C)COP(=O)(O)OP(=O)(O)OC[C@H]1O[C@@H](n2cnc3c(N)ncnc32)[C@H](O)[C@@H]1OP(=O)(O)O; assay: purified protein; assay type: biochemical, Comamonas testosteroni; conditions: 100 mM sodium Hepes pH 7.5, 25 °C
T1 construct: C-terminal MaoC domain only (DUF35 removed), His-tagged (pET28a NdeI/HindIII), from E. coli BL21 LOBSTR; homodimer

[2] = system: T2, C[C@H](/C=C/C(=O)SCCNC(=O)CCNC(=O)[C@H](O)C(C)(C)COP(=O)(O)OP(=O)(O)OC[C@H]1O[C@@H](n2cnc3c(N)ncnc32)[C@H](O)[C@@H]1OP(=O)(O)O)[C@H]1CC[C@H]2[C@@H]3[C@H](O)C[C@@H]4C[C@H](O)CC[C@]4(C)[C@H]3C[C@H](O)[C@]12C; assay: purified protein; assay type: biochemical, Comamonas testosteroni; conditions: 100 mM sodium Hepes pH 7.5, 25 °C
T2 construct: C-terminal MaoC domain only (DUF35 removed), His-tagged (pET28a NdeI/HindIII), from E. coli BL21 LOBSTR; homodimer

purified protein [3] = substrate: C[C@H](/C=C/C(=O)SCCNC(=O)CCNC(=O)[C@H](O)C(C)(C)COP(=O)(O)OP(=O)(O)OC[C@H]1O[C@@H](n2cnc3c(N)ncnc32)[C@H](O)[C@@H]1OP(=O)(O)O)[C@H]1CC[C@H]2[C@@H]3[C@H](O)C[C@@H]4C[C@H](O)CC[C@]4(C)[C@H]3C[C@H](O)[C@]12C; assay: purified protein; assay type: biochemical, Comamonas testosteroni; conditions: 100 mM sodium Hepes pH 7.5, 25 °C
[4] = biological target: T3, N-terminal His-tagged Sal (side chain aldolase / steroid aldolase) from Comamonas testosteroni KF-1 (Comamonas testosteroni KF-1, UniProt B7X4S8 1-404); assay: SEC; analytical size-exclusion chromatography, Superdex 200, 20 mM sodium Hepes pH 7.5, 0.15 M NaCl; native molecular weight from a standard curve; conditions: both partners purified
T3 construct: gene amplified from genomic DNA; theoretical molecular weight of tagged Sal 46.08 kDa; Cloned into pMCSG7 by ligation independent cloning; source: E. coli BL21 LOBSTR (pMCSG7), coexpressed with untagged Shy or its truncated forms; in cell extract, then purified on Ni-NTA; not shown: His tag, N-terminal, kept
T3 sequence (looked up): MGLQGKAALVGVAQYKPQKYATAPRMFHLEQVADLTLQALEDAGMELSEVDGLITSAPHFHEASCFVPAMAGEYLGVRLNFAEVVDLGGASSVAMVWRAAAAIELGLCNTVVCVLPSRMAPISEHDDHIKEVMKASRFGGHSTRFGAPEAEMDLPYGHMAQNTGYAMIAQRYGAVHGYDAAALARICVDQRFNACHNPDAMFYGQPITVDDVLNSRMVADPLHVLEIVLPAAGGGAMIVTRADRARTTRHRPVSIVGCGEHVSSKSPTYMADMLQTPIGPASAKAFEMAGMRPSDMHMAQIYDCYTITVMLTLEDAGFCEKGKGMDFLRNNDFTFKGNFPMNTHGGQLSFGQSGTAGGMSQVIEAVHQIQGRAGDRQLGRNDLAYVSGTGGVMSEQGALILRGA

[5] = biological target: the molecule itself; assay: as above
purified protein [6] = substrate: C[C@H](C(O)CC(=O)SCCNC(=O)CCNC(=O)[C@H](O)C(C)(C)COP(=O)(O)OP(=O)(O)OC[C@H]1O[C@@H](n2cnc3c(N)ncnc32)[C@H](O)[C@@H]1OP(=O)(O)O)[C@H]1CC[C@H]2[C@@H]3[C@H](O)C[C@@H]4C[C@H](O)CC[C@]4(C)[C@H]3C[C@H](O)[C@]12C; assay: purified protein; assay type: biochemical, Comamonas testosteroni; conditions: 100 mM sodium Hepes pH 7.5, 25 °C, 1 mM NAD+, 7 nM Sad (coupling enzyme)
purified protein [7] = substrate: C/C=C/C(=O)SCCNC(=O)CCNC(=O)[C@H](O)C(C)(C)COP(=O)(O)OP(=O)(O)OC[C@H]1O[C@@H](n2cnc3c(N)ncnc32)[C@H](O)[C@@H]1OP(=O)(O)O; assay: purified protein; assay type: biochemical, Comamonas testosteroni; conditions: 100 mM sodium Hepes pH 7.5, 25 °C
purified protein [8] = substrate: C[C@H](/C=C/C(=O)SCCNC(=O)CCNC(=O)[C@H](O)C(C)(C)COP(=O)(O)OP(=O)(O)OC[C@H]1O[C@@H](n2cnc3c(N)ncnc32)[C@H](O)[C@@H]1OP(=O)(O)O)[C@H]1CC[C@H]2[C@@H]3CC=C4C[C@@H](O)CC[C@]4(C)[C@H]3CC[C@]12C; assay: purified protein; assay type: biochemical, Comamonas testosteroni; conditions: 100 mM sodium Hepes pH 7.5, 25 °C

Molecule: ShyMaoC (Comamonas testosteroni KF-1; I309F)
Km [1]: 65.0 ± 3.25 µM
kcat [1]: 0.00555 ± 0.000129 s⁻¹
kcat/Km [1]: 85.4 ± 4.71 M⁻¹ s⁻¹
Km [2]: 12.3 ± 1.05 µM
kcat [2]: 67.2 ± 2.77 s⁻¹
kcat/Km [2]: 5.46e+06 ± 518000 M⁻¹ s⁻¹

stoichiometry N [4]: 1 Shy per Sal (2:2 complex)
B1: Untagged Shy (side chain hydratase) from Comamonas testosteroni KF-1 (enzyme, UniProt B7X4S7 1-312, looked up)
chain: MAWNKPLPHPTEISAPYWEGLKAHEVRIQQCDRGHSLFFPRTHCPTCGSRSLKWSKVSGEGTLYSFTVARIPTMPEFTDEMPQALAVIELREGVRINTTMVGVAPEALKVGMEVRPVFDERPGEVTLLRFTAHAGSHPSVIKADAESEVAVVEQSVAAKRRISVKDIEAMKSLVSEEYSPWSNEFTVSQEVIDEFARLSGDDYWIHTDPVQAREKSPFGTTIAHGALVQVLASQLRIPLDYEVVDFNNMVNYGSDRLRFPTPVPSGCKIRARARIKAVEQVRSGVQATMELNIHVVGQDRPAVINDLVILYM
notes: N-terminal DUF35 domain and C-terminal MaoC domain; theoretical molecular weight 34.81 kDa; called 'the full protein' in the discussion; source: E. coli BL21 LOBSTR (pBTLactac, tagless), coexpressed with His-tagged Sal; in cell extract, then copurified on Ni-NTA
Km (purified protein [3]): 6.19 ± 0.446 µM
kcat (purified protein [3]): 163 ± 1.5 s⁻¹
kcat/Km (purified protein [3]): 2.64e+07 ± 1.91e+06 M⁻¹ s⁻¹

B2: His-tagged Shy_(MaoC), MaoC domain of Shy (domain or fragment, Comamonas testosteroni KF-1, UniProt B7X4S7 148-312, looked up)
chain: EVAVVEQSVAAKRRISVKDIEAMKSLVSEEYSPWSNEFTVSQEVIDEFARLSGDDYWIHTDPVQAREKSPFGTTIAHGALVQVLASQLRIPLDYEVVDFNNMVNYGSDRLRFPTPVPSGCKIRARARIKAVEQVRSGVQATMELNIHVVGQDRPAVINDLVILYM
notes: theoretical molecular weight of the tagged construct 20.5 kDa; Inserted into pET28a between NdeI and HindIII; source: E. coli BL21 LOBSTR (pET28a), purified (Ni-NTA)
stoichiometry N [5]: 2

B3: Shy-Sal (aldolase site in Sal) (Comamonas testosteroni KF-1) (protein)
chain: MGLQGKAALVGVAQYKPQKYATAPRMFHLEQVADLTLQALEDAGMELSEVDGLITSAPHFHEASCFVPAMAGEYLGVRLNFAEVVDLGGASSVAMVWRAAAAIELGLCNTVVCVLPSRMAPISEHDDHIKEVMKASRFGGHSTRFGAPEAEMDLPYGHMAQNTGYAMIAQRYGAVHGYDAAALARICVDQRFNACHNPDAMFYGQPITVDDVLNSRMVADPLHVLEIVLPAAGGGAMIVTRADRARTTRHRPVSIVGCGEHVSSKSPTYMADMLQTPIGPASAKAFEMAGMRPSDMHMAQIYDCYTITVMLTLEDAGFCEKGKGMDFLRNNDFTFKGNFPMNTHGGQLSFGQSGTAGGMSQVIEAVHQIQGRAGDRQLGRNDLAYVSGTGGVMSEQGALILRGA
notes: same complex as P1: N-terminally His-tagged Sal with untagged full-length Shy, from E. coli BL21 LOBSTR; 160 kDa heterotetramer; with Side chain hydratase Shy, bifunctional OB-fold (DUF35) / MaoC family dehydratase domain-containing protein
Km (purified protein [6]): 8.12 ± 0.477 µM
kcat (purified protein [6]): 37.6 ± 0.8 s⁻¹
kcat/Km (purified protein [6]): 4.63e+06 ± 289000 M⁻¹ s⁻¹

B4: ShyMaoC (Comamonas testosteroni KF-1) (protein)
chain: ESEVAVVEQSVAAKRRISVKDIEAMKSLVSEEYSPWSNEFTVSQEVIDEFARLSGDDYWIHTDPVQAREKSPFGTTIAHGALVQVLASQLRIPLDYEVVDFNNMVNYGSDRLRFPTPVPSGCKIRARARIKAVEQVRSGVQATMELNIHVVGQDRPAVINDLVILYM
notes: C-terminal MaoC domain only (DUF35 removed), His-tagged (pET28a NdeI/HindIII), from E. coli BL21 LOBSTR; homodimer
Km (purified protein [7]): 63.6 ± 3.62 µM
kcat (purified protein [7]): 0.00412 ± 0.00011 s⁻¹
kcat/Km (purified protein [7]): 64.8 ± 4.07 M⁻¹ s⁻¹
Km (purified protein [8]): 6.71 ± 0.588 µM
kcat (purified protein [8]): 62.9 ± 2.32 s⁻¹
kcat/Km (purified protein [8]): 9.37e+06 ± 890000 M⁻¹ s⁻¹
Km (purified protein [3]): 6.14 ± 0.524 µM
kcat (purified protein [3]): 211 ± 6.71 s⁻¹
kcat/Km (purified protein [3]): 3.44e+07 ± 3.13e+06 M⁻¹ s⁻¹
